Several values for one entry are separate records, joined by “and”; a condition that tells them apart may be missing. Equal entries are not always repeated.
B1: Bsc4 EC1118, C-terminally hexahistidine-tagged (natural protein, S. cerevisiae (strain EC1118), UniProt P53841 2-121, looked up)
chain: SIVLRKSNKKNKNCITSKFYTIHIIKISTPVFRAPIAIGESPYVEWSCLQVVFRKDMVTKKTTFAQLITRLNHFLCQALKRRDSKTYILCRTAVFGAMTPFSPRKSHINNKLPMQPRKKK
B2: Bsc4 S288C, C-terminally hexahistidine-tagged (natural protein, S. cerevisiae (strain S288C), UniProt P53841 2-131, looked up)
chain: SIVLRKSNKKNKNCITSKFYTIHIIKISTPVFRAPIAIGESPYVEWSCLQVVFRKDMVTKKTTFAQLITRLNHFLCQALKRRDSKTYILCRTAVFGAMTPFSPRKSHINNKLPMQPRKKKIVIIYVVRFH
B3: Bsc4 S288C, N-terminally hexahistidine-tagged (natural protein, S. cerevisiae (strain S288C), UniProt P53841 1-131, looked up)
chain: MSIVLRKSNKKNKNCITSKFYTIHIIKISTPVFRAPIAIGESPYVEWSCLQVVFRKDMVTKKTTFAQLITRLNHFLCQALKRRDSKTYILCRTAVFGAMTPFSPRKSHINNKLPMQPRKKKIVIIYVVRFH

How the values were obtained:
SEC [1] = molecular target: the molecule itself; test: SEC
native MS [2] = molecular target: the molecule itself; test: native MS
native MS [3] = molecular target: the molecule itself; test: native MS; remark: listed apart in the source
SEC [4] = molecular target: the molecule itself; test: SEC; remark: listed apart in the source
SEC [5] = molecular target: the molecule itself; test: SEC; remark: listed apart in the source
SEC [6] = molecular target: the molecule itself; test: SEC; remark: listed apart in the source

Row | Protein | stoichiometry N (SEC [1]) | stoichiometry N (native MS [2]) | stoichiometry N (native MS [3]) | stoichiometry N (SEC [4]) | stoichiometry N (SEC [5]) | binding result (SEC [6])
1 | B1 | 4 | 2 and 6 | 7 and 8 | ≥ 2 | – | –
2 | B2 | – | – | – | ≥ 2 | 2 | –
3 | B3 | – | – | – | – | – | binds

Reference: article PMC5677532 (Structure (London, England : 1993), 2017)
